{"source": "patent US20100098683A1", "about": "(Dana-Farber, published 2010)", "binders": {"B1": {"name": "MUC1-C(N36A) (receptor)", "chain": "SVVVQLTLAFREGTINVHDVETQFNQYKTEAASRYALTISDVSVSDVPFPFSAQSGAGVPGWGIALLVLVCVLVALAIVYLIALAVCQCRRKNYGQLDIFPARDTYHPMSEYPTYHTHGRYVPPSSTDRSPYEKVSAGNGGSSLSYTNPAVAATSANL", "notes": "Stably expressed in BT549 cells and tested in lysates; lacks the glycosylated 25-20 kDa species; also called MUC1-C with a N36A mutation"}}, "biological_target": "T1, GST-galectin-3 (human, UniProt P08515 1-218 = GST)", "T1 construct": "Full-length galectin-3 in pGEX4T1; also called GST-galectin-3 fusion protein; GST fusion with full-length galectin-3", "T1 sequence (P08515 1-218, tags or fused parts left off)": "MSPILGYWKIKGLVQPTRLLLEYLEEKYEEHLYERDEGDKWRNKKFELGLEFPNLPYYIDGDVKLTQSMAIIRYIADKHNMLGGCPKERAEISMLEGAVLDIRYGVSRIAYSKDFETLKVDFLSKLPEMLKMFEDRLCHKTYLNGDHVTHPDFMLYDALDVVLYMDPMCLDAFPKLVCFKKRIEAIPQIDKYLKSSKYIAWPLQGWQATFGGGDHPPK", "assay": "GST-galectin-3 pull-down from BT549 lysates, anti-MUC1-C immunoblot", "protocol": "Immunoblotting and precipitates. Lysates were prepared from subconfluent cells as described (Li et al., 2001)."}
{"binder": "B1", "values": [{"measurement": "binding result", "value": "no binding"}]}
